The target of one experiment is 6His-MAP kinase p38α (human). Briefly: other, NMR titration 298K.
Experiment [1] deals with T1, MAP kinase p38α (OH-p38α, non-phosphorylated) (human). As to the kind of experiment: SPR, inhibition in solution.
The target in experiment [2] is T1, MAP kinase p38α (OH-p38α, …). Briefly: other, biochemical kinase assay.

Sequence of 6His-MAP kinase p38α (human) (chain, as listed by the source): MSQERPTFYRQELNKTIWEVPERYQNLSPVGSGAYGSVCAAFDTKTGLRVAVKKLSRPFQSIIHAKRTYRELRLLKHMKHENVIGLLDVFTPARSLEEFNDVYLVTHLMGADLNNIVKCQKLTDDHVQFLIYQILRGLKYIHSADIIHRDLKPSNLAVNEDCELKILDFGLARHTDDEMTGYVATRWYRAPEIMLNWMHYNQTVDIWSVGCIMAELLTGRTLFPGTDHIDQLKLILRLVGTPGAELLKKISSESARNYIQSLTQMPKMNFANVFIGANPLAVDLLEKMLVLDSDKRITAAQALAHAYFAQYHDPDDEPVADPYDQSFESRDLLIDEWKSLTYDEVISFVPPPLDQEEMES
T1 sequence (chain, as listed by the source): as above

The Kd is the constant that tells how readily two partners part at equilibrium. A low value points to tighter binding. One may read the Ki as a measure of affinity in units of concentration, obtained from inhibition or displacement. HKSRALLIFQKIMWLRRQ [BB2702]: the Kd in the experiment with 6His-MAP kinase p38α is less than 1000 nM; in experiment [1], 25 nM. Moreover, the Ki in experiment [2] came to 7 nM.

As to RKPDLRVVIPPSS [MEF2A peptide], in the experiment with 6His-MAP kinase p38α, the dissociation constant (Kd) is roughly 250000 nM.

Source of the values: US10293024 (dated 2019).
